Assay results as given in patent US20210301011A1, “COMPOSITION FOR PROPHYLAXIS OR TREATMENT OF IL-8 RELATED DISEASES” (CHUGAI SEIYAKU KABUSHIKI KAISHA, priority 2016, published 2021).

What was measured:
human FcγRIIIa = molecular target: T1, human FcγRIIIa (Homo sapiens, UniProt P08637); assay: Binding to soluble FcγR (BIACORE T200); settings: 20° C., HBS-EP+
T1 construct: the soluble forms of FcγRIa and FcγRIIIa in human and cynomolgus monkey; His tag; made in house
Protocol: (§1) Soluble FcγRIa and FcγRIIIa in both human and cynomolgus monkey were produced in the form of His-tagged molecules by methods known to those of ordinary skill in the art. […] Next, soluble FcγRIa or FcγRIIIa was injected with a running buffer (used as a reference solution), and was made to interact with the antibodies captured onto the sensor chip. HBS-EP+(GE Healthcare) was used as the running buffer, and HBS-EP+ was also used to dilute the soluble FcγRIa or FcγRIIIa. […] All measurements were carried out at 20° C.

[1] = molecular target: T2, cynomolgus monkey FcγRIIIa (Macaca fascicularis, UniProt Q8SPW2); assay: Binding to soluble FcγR (BIACORE T200); settings: 20° C., HBS-EP+
T2 construct: the soluble forms of FcγRIa and FcγRIIIa in human and cynomolgus monkey; His tag; made in house
T2 sequence (Q8SPW2 17-208 limits assumed): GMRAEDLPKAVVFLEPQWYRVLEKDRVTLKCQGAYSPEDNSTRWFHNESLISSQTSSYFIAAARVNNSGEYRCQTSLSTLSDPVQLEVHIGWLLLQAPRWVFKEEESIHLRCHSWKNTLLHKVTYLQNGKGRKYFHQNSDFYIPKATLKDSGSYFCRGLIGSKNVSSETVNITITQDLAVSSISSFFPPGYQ
Protocol: as §1

human FcγRIa = molecular target: T3, human FcγRIa (Homo sapiens, UniProt P12314); assay: Binding to soluble FcγR (BIACORE T200); settings: 20° C., HBS-EP+
T3 construct: the soluble forms of FcγRIa and FcγRIIIa in human and cynomolgus monkey; His tag; made in house
T3 sequence (P12314 16-292 limits assumed): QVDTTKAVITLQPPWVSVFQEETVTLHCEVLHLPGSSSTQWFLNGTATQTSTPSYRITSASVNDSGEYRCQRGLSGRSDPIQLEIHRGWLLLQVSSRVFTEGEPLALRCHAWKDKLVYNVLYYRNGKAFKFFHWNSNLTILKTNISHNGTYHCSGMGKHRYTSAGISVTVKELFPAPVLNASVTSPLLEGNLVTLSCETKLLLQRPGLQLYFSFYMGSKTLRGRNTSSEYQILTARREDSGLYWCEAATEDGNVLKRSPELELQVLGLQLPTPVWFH
Protocol: as §1

cynomolgus monkey FcγRIa = assay: Binding to soluble FcγR (BIACORE T200); settings: 20° C., HBS-EP+
Protocol: as §1

post-surgical adhesion [2] = assay: Post-surgical adhesion-induced monkey model; format: in vivo, cynomolgus monkeys; set-up: key: ∘: Adhesion found; x: No adhesion; settings: 10 mg/kg i.v. one hour or less after surgery; laparoscopy 24 to 35 days after; per animal
Protocol: To prepare a post-surgical adhesion-induced model, female cynomolgus monkeys 9 to 16 years of age (provided by the Tsukuba Primate Research Center at the National Institutes of Biomedical Innovation, Health and Nutrition) were treated under anesthesia as follows. Anesthesia was performed using balanced anesthesia of ketamine/xylazine (mixed at an adequate ratio of about 2:1) and isoflurane. An incision of 5 to 6 cm was made in the median line of the abdominal wall. After opening the abdomen, a 1-cm incision was made on the uterine corpus and sutured with 4 stitches using a single suture. Then, the whole uterus was brushed five times with gauze. Next, a 1-cm incision was made to the right abdominal wall peritoneal part at 2 cm from the incised median line of the abdominal wall and sutured by running suture with 4 stitches using an absorbable suture. After suture, the sutured part was brushed five times with gauze. Likewise, the peritoneum of left abdominal wall was incised, sutured, and brushed with gauze. Finally, the median line of abdominal wall was sutured by running suture with 10 to 11 stitches. The entire steps were completed in one hour or less. The antagonist Antisedan (in roughly the same amount as that of xylazine) and the antibiotic cephradine were administered at the time of awakening after surgery. Then, the pain reliever Zalban was administered for two days after surgery, and the monkeys were observed regularly every day to confirm the absence of post-surgical abnormalities. At laparoscopic observation, anesthesia and post-surgical monitoring were also performed in the same way.
The control group was untreated. 24 to 35 days after administration of the anti-IL-8 antibody, laparoscopy was performed to observe the adhesion formed due to incision, suture, and blushing with gauze. The abdomen was incised in the median line under anesthesia, and laparoscopic observation was performed by inserting a trocar and then introducing a laparoscope. The laparoscope was connected to a video system (KARL STORZ) and a monitor. The video system was used for recording, and the monitor was used for intraperitoneal observation. The size of the adhesion was measured using a graduated bar or graduated forceps. The presence, range, and location of adhesion were assessed during laparoscopic observation. […] Although adhesion was found in individual No. 206 in the anti-IL-8 antibody administration group, no adhesion was found in the right and left abdominal wall peritoneum or at the uterine incision site in individual No. 201. […] Those skilled in the art will naturally appreciate that anti-IL-8 antibodies may exert a stronger adhesion formation-preventive effect by appropriately altering the timing of administration or such. […]

post-surgical adhesion [3] = assay: Adhesion after surgery (area surrounding the incision site in the abdominal wall) in endometriosis monkey models; format: in vivo, cynomolgus monkeys; settings: 10 mg/kg; before vs six months after initiation of administration
Protocol: Specifically, adhesion to the area surrounding the incision site on the abdominal wall was compared before and after administration and evaluated by five evaluators on a three-point scale: (1) Improved, (2) Stable, and (3) Progressed. Ratings with a consensus among three or more of the five evaluators were adopted; otherwise (2) Stable was used. Evaluations were carried out on six monkeys in the vehicle group as well as seven monkeys in the antibody […]/[…]-[…] administration group. […] The monkey with “Progressed” was an individual in which the blood concentration of antibody […]/[…]-[…] had decreased due to anti-antibody production.

T1 sequence (P08637 17-208 limits assumed): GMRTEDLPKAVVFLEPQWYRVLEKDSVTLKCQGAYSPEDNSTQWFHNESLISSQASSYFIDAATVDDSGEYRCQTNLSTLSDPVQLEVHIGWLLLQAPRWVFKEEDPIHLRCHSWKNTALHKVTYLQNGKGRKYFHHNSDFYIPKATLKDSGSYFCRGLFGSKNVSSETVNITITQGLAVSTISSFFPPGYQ

binding to soluble human FcγRIIIa (human FcγRIIIa): not to bind to any of the FcγRs
binding to soluble cynomolgus monkey FcγRIIIa [1]: not to bind to any of the FcγRs
binding to soluble human FcγRIa (human FcγRIa): not to bind to any of the FcγRs
binding to soluble cynomolgus monkey FcγRIa (cynomolgus monkey FcγRIa): not to bind to any of the FcγRs
B1: H1009/L395-F1974m: H1009-F1974m (SEQ ID NO:36) heavy chain, L395-kOMT light chain; the anti-IL-8 antibody of Table 29 (antibody)
heavy: QVQLVESGGGLVQPGGSLRLSCAASGFTFSDYYLSWVRQAPGKGLEWVGLIRNKDNYHTPEYSASVKGRFTISRDDSKNSLYLTMSDLKTEDTAVYYCARENHRYDVELAYWGQGTLVTVSSASTKGPSVFPLAPSSKSTSGGTAALGCLVKDYFPEPVTVSWNSGALTSGVHTFPAVLQSSGLYSLSSVVTVPSSSLGTQTYICNVNHKPSNTKVDKKVEPKSCDKTHTCPPCPAPELRRGPSVFLFPPKPKDTLMISRTPEVTCVVVDVSHEDPEVKFNWYVDGVEVHNAKTKPREEQYNSTYRVVSVLTVLHQDWLNGKEYKCKVSNKGLPSSIEKTISKAKGQPREPQVYTLPPSREEMTKNQVSLTCLVKGFYPSDIAVEWESNGQPENNYKTTPPVLDSDGSFFLYSKLTVDKSRWQQGNVFSCSVLHEALHAHTTRKELSLSP
light: DIQMTQSPSSLSASVGDRVTITCRASEIIYSYLAWYQQKPGKAPKLLIYKAKTHADGVPSRFSGSGSGTDFTFTISSLQPEDIATYYCKHHFGFPRTFGQGTKVEIKRTVAAPSVFIFPPSDEQLKSGTASVVCLLNNFYPREAKVQWKVDNALQSGNSQESVTEQDSKDSTYSLSSTLTLSKADYEKHKVYACEVTHQGLSSPVTKSFNRGEC
adhesion at incision site: Abdominal wall, Median line (post-surgical adhesion [2]): ∘
adhesion at incision site: Abdominal wall, Peritoneum (L) (post-surgical adhesion [2]): ∘ and x
adhesion at incision site: Abdominal wall, Peritoneum (R) (post-surgical adhesion [2]): ∘ and x
adhesion at incision site: Uterus (post-surgical adhesion [2]): ∘ and x
post-surgical adhesion: Improved (monkeys/total) (post-surgical adhesion [3]): 6/7
post-surgical adhesion: Progressed (monkeys/total) (post-surgical adhesion [3]): 1/7
post-surgical adhesion: Stable (monkeys/total) (post-surgical adhesion [3]): 0/7
